T1: PulE N1E domain (aa 1-108) with C-terminal StrepII tag (Klebsiella pneumoniae HS11286, UniProt A0A0H3GRZ5 1-108)
T1 construct: N1E domain of PulE, Klebsiella pneumoniae HS11286, aa 1-108; source: E. coli, co-expressed with Pul_(Lcyto) (pASK3c); not shown: StrepII, C-terminal, kept
T1 sequence: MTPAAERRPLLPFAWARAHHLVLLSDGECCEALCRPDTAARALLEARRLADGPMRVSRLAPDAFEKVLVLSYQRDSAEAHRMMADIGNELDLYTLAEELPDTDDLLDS

T2: PulE with C-terminal StrepII tag (Klebsiella pneumoniae HS11286, UniProt A0A0H3GRZ5 1-497)
T2 construct: PulE ATPase of the Klebsiella pneumoniae HS11286 type II secretion system; N1E, N2E and CTE domains; also called PulE ATPase; GspE; source: E. coli C43 (DE3) with pspA knockout, co-expressed (from the pul operon in pASK3c, or full-length pulE alone in pASK3c); DDM-solubilised membranes; purified as part of a complex (StrepTrap, Flag resin); not shown: StrepII, C-terminal, kept
T2 sequence: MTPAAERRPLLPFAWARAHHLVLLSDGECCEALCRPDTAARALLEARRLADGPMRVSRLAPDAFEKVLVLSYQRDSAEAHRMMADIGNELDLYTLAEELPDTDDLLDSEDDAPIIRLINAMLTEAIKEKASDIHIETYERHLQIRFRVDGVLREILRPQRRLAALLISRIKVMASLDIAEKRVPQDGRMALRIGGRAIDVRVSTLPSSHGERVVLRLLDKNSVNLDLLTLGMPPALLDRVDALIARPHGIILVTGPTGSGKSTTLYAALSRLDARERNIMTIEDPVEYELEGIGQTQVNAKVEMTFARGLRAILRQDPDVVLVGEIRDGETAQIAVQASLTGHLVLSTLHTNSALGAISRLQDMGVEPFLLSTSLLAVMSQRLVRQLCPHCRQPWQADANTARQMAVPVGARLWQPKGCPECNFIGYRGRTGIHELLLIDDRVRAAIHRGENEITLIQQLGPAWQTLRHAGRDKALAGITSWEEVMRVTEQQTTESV

B1: PulL cytoplasmic domain (aa 1-235) with C-terminal Flag tag (domain or fragment)
chain: MNKINASPQAMLIVRLAAAQAPLHWQLFAPGEPHHEASGRWPTDDASPFPALAEQYPAWVLIPASDCAFHSLNLPAGLRKPPLQVAPFLLEEQLADDVEATHFALLHRQQAQCEIVAVQRQKMRDWLARCESLSLQPLALTPDVLALPWQPPAWSAVQVDEQWLIRHQPWGGMAAENVWLTELLQSEAEEHVIDSYSPPPAAPGVWREQPAQTLLTLAARHPAAQKLSLLQGEFA
notes: cytoplasmic domain of PulL, Klebsiella pneumoniae HS11286, aa 1-235; source: E. coli, co-expressed (pCDF-duet); not shown: Flag, C-terminal, kept
B2: PulL (natural protein)
chain: MNKINASPQAMLIVRLAAAQAPLHWQLFAPGEPHHEASGRWPTDDASPFPALAEQYPAWVLIPASDCAFHSLNLPAGLRKPPLQVAPFLLEEQLADDVEATHFALLHRQQAQCEIVAVQRQKMRDWLARCESLSLQPLALTPDVLALPWQPPAWSAVQVDEQWLIRHQPWGGMAAENVWLTELLQSEAEEHVIDSYSPPPAAPGVWREQPAQTLLTLAARHPAAQKLSLLQGEFAVRRRSAQASWRPARYAALALALLAGANSVLDHRDLARQAEAAQQASRAFYHRWFPTEKKVINPRLQMQQHLQTLTRQAQHAPLVDRLSALQNILSETPGIRLRALSWDAAGNRLQLDIAAVTSRALEQFTQRAQPRFRVRPGDMITKPDGIEGQLTLEENDG
notes: PulL of the Klebsiella pneumoniae HS11286 type II secretion system; bitopic inner membrane protein with a cytoplasmic domain (aa 1-235) and a periplasmic domain; a tag may have been present there; also called GspL; source: DDM-solubilised membranes; purified as part of a complex
B3: PulC (natural protein)
chain: MPVSVMRLTNINKGIIKLLPQIVTLIILITAIPQLAKLTWRVVFPVSPEDISALPLTMPPAADPELKNVRPAFTLFGLAVKNSPTPTDAASLNQVPVSSLKLRLAGLLASSNPARSIAIIEKGNQQVSLSTGDPLPGYDARIAAILPDRIIVNYQGRKEAILLFNDSRAPSPPPTAAGNPPLVKRLREQPQNILTYLSISPVLSGDKLLGYRLNPGKDASLFRQSGLQANDLAIALNGIDLRDQEQAQQALQNLADMTEITLTVEREGQRHDIAFALGDE
notes: whole gene as part of the cloned operon pulC to pulO; has an N-terminus in the inner membrane, an HR domain and a PDZ domain; Only the HR domain (homology model) is fitted in the outer membrane complex map; also called GspC; source: E. coli C43 (DE3) with pspA knockout, co-expressed from the pul operon (pASK3c); DDM-solubilised membranes; purified as part of the complex (StrepTrap, Flag resin)
B4: PulN (natural protein)
chain: MKANWIAGGLLLVLYLLWLTATAPARLLAPMLPPGVQVGQFSGSVWRGAAQPVYWHGERLERLAWSLTLAGWQVSLSDPRGVMGQARLWGLRDLRLQEGRLTAPASLLSRWLMSTMPVKAAGEVTFSLTEGRFSDGRCRHIIAGGAQWRQARLHSPVGSLELAQVNGTFRCTVDGAVALTLRQDSHQLSLSGQGTLSPDGRYLFRGTLQPRQGMPPLLALLVTRPTANNAPGPTPWQLQGKWLPQEQK
notes: PulN of the Klebsiella pneumoniae HS11286 type II secretion system; whole gene as part of the cloned operon pulC to pulO; source: E. coli C43 (DE3) with pspA knockout, co-expressed from the pul operon (pASK3c); DDM-solubilised membranes; purified as part of the complex (StrepTrap, Flag resin)
B5: PulM (natural protein)
chain: MANLLIWWRQRTPSEQRLLLGLTGLLAACAFWYGLWQPWRAREAQWRQTLVKEQASLRWMTEQAPRLQQLSQQPAPAAKEALTALVMREAASHGLTVIRLQPQGKRLQITLQPCAFQALIDWLDAPAMRGVNAISLSVTGQPSRPGWVTVNHLLLERDDEG
notes: PulM of the Klebsiella pneumoniae HS11286 type II secretion system; whole gene as part of the cloned operon; also called GspM; source: DDM-solubilised membranes; purified as part of a complex

Tests used:
[1] = molecular target: PulD (Klebsiella pneumoniae HS11286) (UniProt P15644); test: cryo-EM structure; outer membrane complex of the co-expressed and co-purified Pul_CDELMNS complex on thin carbon film; focused refinement, C15 symmetry, 4.3 Å overall; PulC HR domain (7-8 Å) and PulS (~7 Å) as rigid-body fitted homology models; top views from a purification without glutaraldehyde
[2] = molecular target: T1, PulE N1E domain (aa 1-108) with …; test: SDS-PAGE densitometry of the co-purified complex; Pul_(E-N1E/Lcyto) complex, two independent purifications, duplicate gels, Coomassie Blue R250 imaged at 680 nm; settings: both partners purified
[3] = molecular target: T2, PulE with C-terminal StrepII tag; test: SDS-PAGE densitometry of the co-purified complex; Pul_CDELMNS co-expressed and co-purified without glutaraldehyde, phenol extracted; fluorescent emission of Coomassie R250 and Sypro Ruby stained gels; six independent purifications; ratios standardised around PulE; settings: both partners purified

Molecule | stoichiometry N [3] | further results
PulD (from UniProt P15644 28-660) (natural protein) | – | stoichiometry N [1]: 15
PulS with C-terminal Flag tag (from UniProt P20440 18-125) (natural protein) | – | stoichiometry N [1]: 1
B1 | – | stoichiometry N [2]: 1
B2 | 0.97 relative to PulE | –
B3 | 2.13 relative to PulE | –
B4 | 0.95 relative to PulE | –
B5 | 0.99 relative to PulE | –
